Measurements: patent publication US20150374845A1
Each block holds one substance with its values, some of them ahead of it.

How the values were obtained:
Assay in all cases: cell-based or functional assay
[1] = biological target: glycosylated dystroglycan of LARGE-expressing MDA-MB-231 human breast cancer cells and LN18 human glioma cells (human) (UniProt Q14118)
[2] = biological target: human dystroglycan (WT DG) expressed by retrovirus in DG-knockout MEpG mammary epithelial cells (human) (UniProt Q14118)
[3] = biological target: wild type human beta1 integrin re-expressed by retrovirus in beta1 integrin-knockout E3D1cre19 MECs (human) (UniProt P05556)
[4] = biological target: beta1 integrin on mammary epithelial cells (MECs) (UniProt P09055)
[5] = biological target: hypoglycosylated dystroglycan of vector-infected MDA-MB-231 human breast cancer cells and LN18 human glioma cells (human) (UniProt Q14118)

Chain of wild type human beta1 integrin re-expressed by retrovirus in beta1 integrin-knockout E3D1cre19 MECs (human) (P05556 21-798): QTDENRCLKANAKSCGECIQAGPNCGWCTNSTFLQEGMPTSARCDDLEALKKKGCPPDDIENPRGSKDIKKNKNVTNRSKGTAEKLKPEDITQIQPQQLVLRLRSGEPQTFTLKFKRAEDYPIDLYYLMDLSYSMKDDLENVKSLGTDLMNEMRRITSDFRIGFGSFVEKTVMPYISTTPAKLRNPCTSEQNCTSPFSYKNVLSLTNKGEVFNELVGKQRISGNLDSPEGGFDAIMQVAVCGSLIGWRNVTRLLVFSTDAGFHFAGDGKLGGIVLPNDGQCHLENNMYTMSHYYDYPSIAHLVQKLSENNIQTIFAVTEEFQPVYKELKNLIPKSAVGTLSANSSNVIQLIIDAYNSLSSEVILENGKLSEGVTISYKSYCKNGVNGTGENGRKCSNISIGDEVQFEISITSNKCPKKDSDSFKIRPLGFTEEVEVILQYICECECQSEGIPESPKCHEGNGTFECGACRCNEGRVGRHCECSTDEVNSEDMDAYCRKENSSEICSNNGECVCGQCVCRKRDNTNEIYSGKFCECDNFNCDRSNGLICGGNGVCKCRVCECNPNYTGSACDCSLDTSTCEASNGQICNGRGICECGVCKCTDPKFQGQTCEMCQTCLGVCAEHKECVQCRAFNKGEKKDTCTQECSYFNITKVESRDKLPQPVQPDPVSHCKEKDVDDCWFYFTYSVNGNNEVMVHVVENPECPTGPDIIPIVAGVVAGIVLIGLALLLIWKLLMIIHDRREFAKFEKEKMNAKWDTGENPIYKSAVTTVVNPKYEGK
Chain of beta1 integrin on mammary epithelial cells (MECs) (P09055 21-798 limits assumed): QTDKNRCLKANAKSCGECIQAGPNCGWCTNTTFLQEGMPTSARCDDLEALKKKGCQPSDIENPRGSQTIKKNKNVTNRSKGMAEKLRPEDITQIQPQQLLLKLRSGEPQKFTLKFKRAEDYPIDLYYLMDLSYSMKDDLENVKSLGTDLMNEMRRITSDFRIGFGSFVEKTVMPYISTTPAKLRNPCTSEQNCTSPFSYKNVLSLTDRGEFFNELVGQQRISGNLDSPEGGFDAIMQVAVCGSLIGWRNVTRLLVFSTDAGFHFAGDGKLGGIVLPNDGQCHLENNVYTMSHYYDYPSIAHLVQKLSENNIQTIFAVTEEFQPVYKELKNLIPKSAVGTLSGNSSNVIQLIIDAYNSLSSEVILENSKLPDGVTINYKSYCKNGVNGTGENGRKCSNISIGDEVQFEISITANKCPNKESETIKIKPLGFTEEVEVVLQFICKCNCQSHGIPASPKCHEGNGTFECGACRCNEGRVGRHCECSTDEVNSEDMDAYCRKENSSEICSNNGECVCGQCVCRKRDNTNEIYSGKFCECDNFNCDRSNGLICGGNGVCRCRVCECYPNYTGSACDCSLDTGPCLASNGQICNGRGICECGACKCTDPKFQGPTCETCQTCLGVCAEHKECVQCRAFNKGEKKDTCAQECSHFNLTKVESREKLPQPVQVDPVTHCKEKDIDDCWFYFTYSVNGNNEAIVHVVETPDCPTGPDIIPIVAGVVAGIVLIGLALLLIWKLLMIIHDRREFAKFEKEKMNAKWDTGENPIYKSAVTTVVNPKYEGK

- MFI of internalized Rhod-Ln, flow cytometry, LN18 cells [1]: 1.49 MFI
- MFI of internalized Rhod-Ln, flow cytometry, MDA-MB-231 cells [1]: 6.82 MFI
- increase in MFI of internalized laminin, LARGE-expressing against vector LN18 cells [1]: 10 fold
- increase in MFI of internalized laminin, LARGE-expressing against vector MDA-MB-231 cells [1]: 68 fold
- compiled MFI of internalized Rhod-Ln, DG-expressing against DG-lacking MEpG cells [2]: 4 fold
- compiled mean fluorescence intensity (MFI) of internalized Rhod-Ln, flow cytometry, MEpG cells [2]: 18 MFI
- laminin internalization, compiled mean fluorescence intensity flow cytometry data [2]: 380 % more
- MFI of internalized laminin, flow cytometry, E3D1cre19 cells [3]: 26.8 MFI
- change in laminin internalization on re-expression of WT β1 integrin in β1 int-/- cells [3]: 20 % increase
Substance: rhodamine-labeled laminin-111, P19137 25-3083; P02469 22-1786; P02468 34-1607

- Ln internalization, cellular fluorescence intensity of Rhod-Ln by flow cytometry, normalized to Ln alone control [4]: 36 % decrease
Substance: Hat2/5 antibody

- MFI of internalized Rhod-Ln, flow cytometry, LN18 cells [5]: 0.145 MFI
- MFI of internalized Rhod-Ln, flow cytometry, MDA-MB-231 cells [5]: 0.1 MFI
Substance: rhodamine-labeled laminin-111 (from UniProt P19137 25-3083; P02469 22-1786; P02468 34-1607) (ligand)
